Measurements taken from article PMC10127185, “Low complexity domains of the nucleocapsid protein of SARS-CoV-2 form amyloid fibrils” (Nature Communications, 2023).

Experiments:
[1] = molecular target: the molecule itself; assay: crystal structure; GSQASS 100 mg/mL in water, hanging drop, 20 °C, 1.0 M Na,K tartrate, 0.2 M Li2SO4, Tris pH 7.0; needle crystals; 1.30 Å
[2] = molecular target: the molecule itself; assay: crystal structure; AALALL form 1: batch, peptide in water, acetonitrile and TFA about 45:45:10; needle crystals; 1.12 Å
[3] = molecular target: the molecule itself; assay: crystal structure; GQTVTK 68 mg/mL in water, hanging drop, 20 °C, 2.0 M (NH4)2SO4, 0.1 M sodium HEPES pH 7.5, 2% v/v PEG 400; 1.10 Å

B1: NCAP steric zipper segment 179GSQASS184 (peptide)
peptide: GSQASS
notes: Nucleocapsid protein (NCAP) of SARS-CoV-2, residues 179-184, within the central LCD; non-phosphorylated peptide
binding result [1]: binds

B2: NCAP steric zipper segment 217AALALL222 (peptide)
peptide: AALALL
notes: Nucleocapsid protein (NCAP) of SARS-CoV-2, residues 217-222, within the central LCD; also called H-AALALL-OH
binding result [2]: binds

B3: NCAP steric zipper segment 243GQTVTK248 (peptide)
peptide: GQTVTK
notes: Nucleocapsid protein (NCAP) of SARS-CoV-2, residues 243-248, within the central LCD
binding result [3]: binds
